Laboratory results: patent US20150353909A1 (ACADEMIA SINICA, published 2015)

Key:
[1] = molecular target: T1, Lys63-linked UB chains (Ub2-7) (UniProt P0CG48 1-76, isopeptide bond between the C-terminus of the distal UB and Lys63 of the proximal UB); assay: GST pull-down, immunoblot
T1 construct: Bought mixture of chain lengths Ub2-7; also called K63-linked UB chains; K63-linked ubiquitin chains
Source text: (§1) The GST pull-down assay and the detection of pulled-down products by immunoblotting has been previously described (Fatimababy et al., (2010) FEBS J. 277, 796-816; Lin et al., (2011) Plant Cell 23, 2754-2773). The Lys48- and Lys63-linked UB chains (Ub2-7) were purchased from Boston Biochem.

[2] = molecular target: T2, Lys48-linked UB chains (Ub2-7) (UniProt P0CG48 1-76, isopeptide bond between the C-terminus of the distal UB and Lys48 of the proximal UB); assay: GST pull-down, immunoblot
T2 construct: Bought mixture of chain lengths Ub2-7; also called K48-linked UB chains; K48-linked ubiquitin chains
Source text: as §1

Binder	binding result [1]	binding result [2]
GST-OTU10 (enzyme, also called OTU10 (GST tag); not shown: GST and His tags from pET42 vector) MVSHEENTSIVEWFLGPHPYTYPPYGIEMIHEDDEVAVAHHHHHHQSGEYYREYEDHRSSDVDNDEIIARTLQDDFLQLEIAESNDYSHQNQQQQHQQEGYTNNYSNNNNGYAWNDQSPAVDYSSEWIGNDNDQDGRSDDSVNVFSCSSPSDTDEYVYSWESDQCDADGEFGRRLNQMVPIPYIPKINGEIPPEEEAVSDHERLRNRLEMFDFTEVKVPGDGNCQFRALADQLYKTADRHKHVRRQIVKQLKSRPDSYQGYVPMDFSDYLRKMSRSGEWGDHVTLQAAADAYRVKIVVLTSFKDTCYIEILPTSQESKGVIFLSFWAEVHYNAIYLNRDTSETELQRKRKWWRFGN	no binding	no binding
GST-OTU7a (enzyme, Full-length coding region in pET42, expressed in E. coli; also called OTU7a (GST fusion); not shown: GST and His tags from pET42 vector) MAKTKQQKSKPKKQPHQKQGKDCDLSQFRAQLDALGLKIIQVTADGNCFFRAIADQLEGNEDEHNKYRNMIVLYIVKNREMFEPFIEDDVPFEDYCKTMDDDGTWAGNMELQAASLVTRSNICIHRNMSPRWYIRNFEDTRTRMIHLSYHDGEHYNSVRSKEDACGGPARPVVIEADAKVSAASKQAKATESKSKNKADKCHVNAGAIKVVMSGSCCDNTEKAEQVLLQVNGDVDAAIEFLIADQGMESLTENDTETASASDTINPKHASDSPMENTEQAREELIEEESASGNNSETVQAKCTTQTDDKKIPRNKTCPCGSKKKYKSCCGTATGRSSVKLLVSQTMESKKGRKNLRRGTSNEVEANAPDVGALCI	no binding	no binding
GST-OTU3 (enzyme, Full-length coding region in pET42, expressed in E. coli; also called OTU3 (GST fusion); not shown: GST and His tags from pET42 vector) MELKSSSNNNILEQLRNGFARFELVSSPTASVSDSISSTSLPASFISTTKGNSYVFFARINSSMNRSPAAKKVEKYAVDRVKGDGRCLFRALVKGMAFNKGITLNPQRERDDADELRMAVKEVICNDPKEREKYKEALVAITVDESLKRFCQRIGRHDFWGGESELLVLSKLCKQPIIVYIPEHEHGRGGGYGPGFIPIQEYGSEFRGGWGKGKTNKNVVRLLYSGRNHYDLLR	no binding	no binding
GST-OTU9 (enzyme, Full-length coding region in pET42, expressed in E. coli; also called OTU9 (GST fusion); not shown: GST and His tags from pET42 vector) MGYEPDPDALRWGLHDLEVCTLTNAGSCSSVTRYESGGGGTQGYVREGYNQPVTGYVDNDAVIAQFYQDELSRVARAEASGINSLSPTSVVAQDWPHPHQGQENQGEAIDITQESDILHNHNGNMEDKNVARIRFEGGQSSPSRDDDSVCSVEIEEESWSEVGKRLNQMIPIAHVPKINGELPSEDEQISDHERLFQRLQLYGLVENKIEGDGNCQFRSLSDQLYRSPEHHNFVREQVVNQLAYNREIYEGYVPMAYNDYLKAMKRNGEWGDHVTLQAAADLFGVRMFVITSFKDTCYIEILPHFQKSNRLICLSFWAEVHYNSIYPEGELPIPEGKKKKKYWVF	no binding	no binding
GST-OTU4c (enzyme, Full-length coding region in pET42, expressed in E. coli; also called OTU4c (GST tag); not shown: GST and His tags from pET42 vector) MMICYSPITTCSRNAISIKRHLGSRLYGVVAHGSSKFSCYSLLSGLSRRHYTGFRVSVSNRPSSWHDKGLFGFAYTGVIVSLLVCYSSTSQSAYADSSRDKDANNVHHHSSDGKFHNGKRVYTDYSIIGIPGDGRCLFRSVAHGFCLRSGKLAPGEKMQRELADELRTRVADEFIQRRQETEWFVEGDFDTYVRQIRDPHVWGGEPELFMASHVLQMPITVYMKDDKAGGLISIAEYGQEYGKDDPIRVLYHGFGHYDALLLHESKASIPKSKL	no binding	no binding
